Laboratory results reported in the supplement of paper PMC9170038.

Test system: MS2 coat protein
Assay: apparent KD of MS2 coat protein; designed switch direction (-1 OFF switch, 1 ON switch): -1; higher = weaker reporter binding
In short: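 On Illumina chips, designed RNA switches with common flanks were made by stalled E. coli RNA polymerase. Titrations with SNAP-549-labelled MS2 coat protein, doubling from 0.7 or 1.5 nM to 3 µM, were done with no input, with 200 uM small-molecule ligand, or with an oligonucleotide input. Apparent KD is the median per design over clusters, from curve fits of normalised cluster fluorescence.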

[1] = input ligand: microRNA oligo, concentration not stated
[2] = Eterna round: R95, input ligand: FMN 200 uM
[3] = Eterna round: R95, input ligand: microRNA oligo, concentration not stated
[4] = Eterna round: R95, input ligand: none

Sequence	apparent KD of MS2 coat protein [1]	apparent KD of MS2 coat protein (input ligand: FMN 200 uM)	apparent KD of MS2 coat protein (input ligand: none)	apparent KD of MS2 coat protein [2]	apparent KD of MS2 coat protein [3]	apparent KD of MS2 coat protein [4]
AUUUAAUUUAAUAAGAUCACAUGAGGAUCACCCAUGUAUAUAUAGGAUAUCAGCUCGAAUAGAGCUGAGAAGGAUAUAUACUAU [ExNG3/7-B4] (Eterna round: R96, puzzle: Exclusion NG 3)	0.276 µM	–	–	–	–	–
AUUUAAUUUAAUAAGAUCACAUGAGGAUCACCCAUGUAUAUAUAGGAUAUCAGCUCGAUUAGAGCUGAGAAGGAUAUAUACAUG [ExNG3/8-A1] (Eterna round: R96, puzzle: Exclusion NG 3)	0.0216 µM	0.0489 µM	0.0381 µM	–	–	–
AUUUAAUUUAAUAAGAUCACAUGAGGAUCACCCAUGUAUAUAUAGGAUAUCAGCUCGAUUAGAGCUGAGAAGGAUAUAUACUAU [ExNG3/7-B1] (Eterna round: R96, puzzle: Exclusion NG 3)	0.422 µM	–	–	–	–	–
AUUUAAUUUAAUAAGAUCACAUGAGGAUCACCCAUGUAUAUAUAGGAUAUCAGCUCGUGUAGAGCUGAGAAGGAUAUAUACAUG [ExNG3/8-A3] (Eterna round: R96, puzzle: Exclusion NG 3)	0.0154 µM	–	–	–	–	–
AUUUAAUUUAAUAAGAUCACAUGAGGAUCACCCAUGUAUAUAUAGGAUAUCAGCUCGUUUAGAGCUGAGAAGGAUAUAUACAUG [ExNG3/8-A2] (Eterna round: R96, puzzle: Exclusion NG 3)	0.0202 µM	0.0226 µM	0.0366 µM	–	–	–
AUUUAAUUUAAUAAGAUCACAUGAGGAUCACCCAUGUAUAUAUAGGAUAUCAGCUCGUUUAGAGCUGAGAAGGAUAUAUACUAU [ExNG3/7-B2] (Eterna round: R96, puzzle: Exclusion NG 3)	0.237 µM	0.19 µM	0.278 µM	–	–	–
AUUUAGAGAGGAUAUAUAUUGUGAAACAUGAGGAUCACCCAUGUAAUAAUAUGGAUGUAAAUAGAAGGCUCAUUUU [Mat - Exclusion 5 - JL mod - D10] (puzzle: Exclusion 5)	–	–	–	0.0402 µM	0.0374 µM	0.0418 µM
AUUUAGUCAGGAUAUUAGUAGUAAAUAAAUAAAAUUAUUACUGAGAAGGGACAUGAGGAUCACCCAUGUGUCUA [Salish 062 v8] (Eterna round: R97, puzzle: Exclusion 4)	–	0.0444 µM	0.0249 µM	–	–	–
AUUUAUGGAGGAUAUACUUGAGGAUCACCCAAGUGGAGUCCCUUUUGGGCGGUAAAUAGUAGAAGGCCGUCUUA [jl-ex3-4.48 ViennaUCT mod] (Eterna round: R97, puzzle: Exclusion 3)	–	0.0209 µM	0.0163 µM	–	–	–
AUUUAUGUUGAGGAUAUGCGAAUAAGUAUAGUUGCAGAAGGCGACACAUGAGGAUCACCCAUGUUCAUGGACCC [LRO-Ex6-02] (puzzle: Exclusion 6)	–	–	–	0.181 µM	0.0815 µM	0.127 µM
AUUUAUGUUGAGGAUAUGCUAAAAUGUAUAGUUGCAGAAGGCGACACAUGAGGAUCACCCAUGUUCAUGGAAUU [LRO-Ex6-01] (puzzle: Exclusion 6)	–	–	–	–	0.0313 µM	–
AUUUGCUCGUCUACUCAAAACAUGAGGAUCACCCAUGUCGGAUUGGAUCCUACCCAGUCAAGACCAUACUCCUCGAC [Eternabot (Original) Solution 39] (Eterna round: R97, puzzle: Sensor, turn-off variant 1)	–	0.342 µM	0.344 µM	–	–	–
AUUUUAUAUGAAGGAUAUACUUAACAUGAGGAUCACCCAUGUGGUGUUGUGAGUGAGUGAGUUUAGUAGAAGGUCAAGUAUUUU [JMF's solution 55] (Eterna round: R96, puzzle: Exclusion NG 2)	0.284 µM	0.724 µM	0.396 µM	–	–	–
AUUUUAUAUGAAGGAUAUACUUAACAUGAGGAUCACCCAUGUGGUGUUGUGAGUGAGUGAGUUUAGUAGAAGGUCAAUGAUUUU [JMF's solution 76] (Eterna round: R96, puzzle: Exclusion NG 2)	0.527 µM	0.828 µM	0.327 µM	–	–	–
AUUUUAUAUGAAGGAUAUACUUAACAUGAGGAUCACCCAUGUGGUGUUGUGAGUGAGUGAGUUUAGUAGAAGGUCAAUUCUUUU [JMF's solution 98] (Eterna round: R96, puzzle: Exclusion NG 2)	0.185 µM	0.24 µM	0.288 µM	–	–	–
AUUUUGUCAGGAUAUGAUUAGUAGGAUGAGAGUGCUACUACUUAGAAGGGACAUGAGGAUCACCCAUGUAUUCC [Bring Us a Shrubbery-07] (puzzle: Exclusion 4)	–	–	–	–	0.0147 µM	–

Sequence	apparent KD of MS2 coat protein [1]	apparent KD of MS2 coat protein (input ligand: FMN 200 uM)	apparent KD of MS2 coat protein (input ligand: none)	apparent KD of MS2 coat protein [2]	apparent KD of MS2 coat protein [3]	apparent KD of MS2 coat protein [4]
AUUUUGUCAGGAUAUUGUUAGUUUAGUUGUUUGUAUUAGUUCGAGAAGGGACAUGAGGAUCACCCAUGUGAUUA [Ex4 #73] (Eterna round: R97, puzzle: Exclusion 4)	–	0.148 µM	0.0922 µM	–	–	–
AUUUUGUGAGGAUAUUAGUAGUAAAUAAAUAAAAUUAUUACUGAGAAGGCACAUGAGGAUCACCCAUGUUCCUA [Salish 062 v7] (Eterna round: R97, puzzle: Exclusion 4)	–	0.193 µM	0.019 µM	–	–	–
CAAAACAGAGGAUAUACAUUUCCUCACCGCCAAAUAGCGGAACAUGAGGAUCACCCAUGUAGAAGGCUGGAAAA [Usenqura] (puzzle: Exclusion 2)	–	–	–	0.384 µM	0.0371 µM	0.0434 µM
CAAAAGGAAGGAUAUGCAUCGGGAGGUGCUCAGCAUCAAAUACAUGAGGAUCACCCAUGUAGAAGGUCUGAAAA [Edbile] (puzzle: Exclusion 2)	–	–	–	–	0.0315 µM	–
CAAACCAGAGGAUAUGCGCAUAGAUCAGACUUUGUUUCUUAACAUGAGGAUCACCCAUGUAGAAGGCUGUAAAC [Ex2 #74] (Eterna round: R97, puzzle: Exclusion 2)	–	0.0123 µM	0.0133 µM	–	–	–
CAAAGAACAUGAGGAUCACCCAUGUGAACCUUCGUUCGACCUCAGGAUAUCCGCCACCGUCCGCAGGAGAAGGGAGGGAAAAUA [Isinar] (Eterna round: R96, puzzle: Exclusion NG 3)	0.0649 µM	0.138 µM	0.0728 µM	–	–	–
CAAAGAUAAGGAUAUUGAAGGUUCGACAUGAGGAUCACCCAUGUUAUGUUGGAAAAGGGACAAGAAGGUAUGAAAA [salish99_ex5_r4_214] (Eterna round: R97, puzzle: Exclusion 5)	–	0.0315 µM	0.0393 µM	–	–	–
CAAAGUUGGUAAGGAUAUCCCACAUUAUUCUGACCCGUGCAAGCUACAUGAGGAUCACCCAUGUGGGAGAAGGUGCGUUAAAGU [Design 2] (Eterna round: R96, puzzle: Exclusion NG 2)	0.164 µM	0.261 µM	0.196 µM	–	–	–
CAACGUGAGCAGGAUAUACAGAGGGAGACCUGGGUAGAAGGGCUCACAUGAGGAUCACCCAUGUUAGCCAAAGA [Eternabot (Original) Solution 47] (Eterna round: R97, puzzle: Exclusion 6)	–	0.0333 µM	0.0188 µM	–	–	–
CAAGAUUACUGAGGAUAUCCUAGUUUAUUUCAGGGAGAAGGCGGACUCAACAUGAGGAUCACCCAUGUAAGACGGGUACUAGAG [Ex NG1 #16] (Eterna round: R96, puzzle: Exclusion NG 1)	0.0711 µM	0.0947 µM	0.0784 µM	–	–	–
CAAUAACAAGCAGGAUCCUACAUGAGGAUCACCCAUGUGCUCGUCUUAUAAAGUACUAUCACGAAAGUGAUAGUACA [Mat - Sensor v3 - turn-off var 1 - Eli Mod - D71] (puzzle: Sensor v3, turn-off variant 1)	–	–	–	0.19 µM	0.0586 µM	0.396 µM
CAAUGCGGAGGAUAUACAUUUAUGACUGCCACAGUACCGAGACAUGAGGAUCACCCAUGUAGAAGGCCGAUUAA [EX2 B.9] (Eterna round: R97, puzzle: Exclusion 2)	–	0.0204 µM	0.0167 µM	–	–	–
CAAUUCCGAGGAUAUACAUGAGGAUCACCCAUGUCGGGCCUCAGCGUUUAGCGCGUAAGUAGAAGGUGGGUUUC [JL Riri mod 6] (puzzle: Exclusion 3)	–	–	–	–	0.0295 µM	–
CAAUUGGGAGGAUAUACAUGAGGAUCACCCAUGUCGAUCCCAGGUAAGUUAAUACUUCGUAGAAGGCCUAUCUC [Eternabot (L2) Solution 16] (Eterna round: R97, puzzle: Exclusion 3)	–	0.0206 µM	0.0176 µM	–	–	–
CACAAGCUUUUUUGAUGCAUUUUAGUUGGUGUGCUUUUUACAUGAGGAUCACCCAUGUUUAUGAAGCUCGAUCUUUU [JR_SV3TOV2_Sub080] (puzzle: Sensor v3, turn-off variant 2)	–	–	–	0.014 µM	0.015 µM	0.0128 µM
